Data on five molecules can be found in PMC3399880, “Genomic Organisation, Embryonic Expression and Biochemical Interactions of the Zebrafish Junctional Adhesion Molecule Family of Receptors” (PLoS ONE, 2012).

The labels stand for the following.
B2: zebrafish Jamc ectodomain (extracellular IgSF domains) fused to rat Cd4 domains 3 and 4 (domain or fragment, UniProt A3KPA0 24-235, looked up)
chain: VLLKSTNSKPWVNEFESIELSCMIESITTTKPRIEWKKIKNGDPSYVYFDNQISGDLERRAKIREPATLVILNATRSDSADYRCEVTAPNDQKSFDEILISLTVRVKPVVPRCSVPKSIPVGKPAELHCLEDEGYPKSQYQWFRNKEEIPLDPKSSPKFFNSTYTLDGEMGTLKFSAVRKEDAGEYYCRAKNEAGISECGPQMMEVYDINIA
notes: Jamc (official symbol jam3b), zebrafish orthologue of JAM-C; extracellular IgSF domains; Stood both as analyte and as ligand (6H and bio forms); also called Jam3b; JAM-C orthologue; source: mammalian expression system, purified; analyte resolved by gel filtration immediately before use; not shown: rat Cd4 domains 3 and 4, C-terminal, kept

Test in all cases: SPR; systematic all-against-all screen of the six ectodomains, each as analyte and as ligand; dissociation phase of three concentrations of purified analyte averaged and fitted to a first-order decay curve; t1/2 = ln 2/kd; 28°C; half-lives in the text are the average of both orientations; t1/2 <=0.1 s not quantifiable (10 Hz instrument)
For orientation: Surface plasmon resonance follows binding to a sensor surface in real time, without labels.

Series [1] deals with zebrafish Jamc ectodomain (extracellular IgSF domains) fused to rat Cd4 domains 3 and 4 (zebrafish) (UniProt A3KPA0).
Series [2] addresses zebrafish Jamc2 ectodomain (extracellular IgSF domains) fused to rat Cd4 domains 3 and 4 (zebrafish).
Series [3] addresses B2. The note with it: both partners purified.
Series [4] deals with the molecule itself.

As to “zebrafish Jamb2 ectodomain (extracellular IgSF domains) fused to rat Cd4 domains 3 and 4 (from UniProt B0V233 1-306) (domain or fragment)”, the t1/2 (half-life of the complex) in series [1] was found to be 0.26 s.
The molecule “zebrafish Jamb ectodomain (extracellular IgSF domains) fused to rat Cd4 domains 3 and 4 (from UniProt A0A0R4IGV4 19-226) (domain or fragment)” gave a t1/2 (half-life of the complex) in series [2] of 7 s.
Molecule “zebrafish Jamc2 ectodomain (extracellular IgSF domains) fused to rat Cd4 domains 3 and 4 (from UniProt A0ACD6B6E9 1-301) (domain or fragment)” returned a t1/2 (half-life of the complex) in series [2] of 0.11 s.

B1: zebrafish Jamb ectodomain (extracellular IgSF domains) fused to rat Cd4 domains 3 and 4 (domain or fragment, UniProt A0A0R4IGV4 19-226, looked up)
chain: VTVSSRNPKVEVHEFSDAELSCEFKTEKDTNPRIEWKRKDKEKDVSFVYYGERFVGPFQDRADIEGATVRLRRVTQADAGEYRCEVSAPSDSISLGETNVTLRVLVPPQTPSCDVPSSALTGSQVELRCRDRHSIPPAVYTWYKDNRALPIRHPNATYTVNEFTGVLIPQSHYNPGTVCQHCMYHPNYHIPNTQLTTTFQTHDLNVAA
notes: Jamb (official symbol jam2a), zebrafish orthologue of JAM-B; extracellular IgSF domains; Stood both as analyte and as ligand (6H and bio forms); also called Jam2a; JAM-B orthologue; source: mammalian expression system, purified; analyte resolved by gel filtration immediately before use; not shown: rat Cd4 domains 3 and 4, C-terminal, kept
In the case of B1, the “t1/2 (half-life of the complex)” value in series [3] was around 1.63 s.
As for B2, the “t1/2 (half-life of the complex)” value in series [4] was 0.67 s.
